No end group written: not given here.
What was measured:
[1] = molecular target: human-type OT7T022 (hOT7T022) G protein-coupled receptor protein (human) (UniProt Q9GZQ6); assay: cell-based or functional assay
[2] = molecular target: human-type OT7T022 (hOT7T022) G protein-coupled receptor protein (human) (UniProt Q9GZQ6); assay: binding inhibition: displacement of 125I-Tyr-hRFRP-3(8) from membrane fraction of human-type OT7T022-expressing CHO cells
[3] = molecular target: T1, human-type OT7T022 (hOT7T022) G protein-coupled receptor protein (human, UniProt Q9GZQ6 1-430); assay: cell-based or functional assay
[4] = molecular target: T1, human-type OT7T022 (hOT7T022) G …; assay: binding inhibition: displacement of 125I-Tyr-hRFRP-3(8) from membrane fraction of human-type OT7T022-expressing CHO cells
Procedure: An assay buffer [50 mM Tris-HCl, pH 7.5, 5 mM EDTA, 0.1% bovine serum albumin (Sigma), 0.5 mM PMSF (Wako Purechemical Industries), 20 μg/ml leupeptin (Peptide Institute, Inc.), 0.1 μg/ml pepstatin A (Peptide Institute, Inc.), 4 μg/ml E64 (Peptide Institute, Inc.) and 10 mM MgCl₂] was prepared. With this buffer, the membrane fraction from human-type OT7T022-expressing CHO cells was diluted to give a concentration of 1 μg/25 μl. […] Sample solutions prepared, NSB and the assay buffer were dispensed into polypropylene 96-well plates in quadruplicate as total 50 μl/well. […] Twenty-five microliter of the membrane fraction solution from human-type OT7T022-expressing CHO cells was added thereto, agitated with a plate mixer and incubated at room temperature for 1.5 hr. Using a cell harvester for 96-well plates, the contents of each well were adsorbed onto a filter unit (GF/C, treated with polyethylene imine) pre-moisturized with washing buffer (50 mM Tris-HCl, pH 7.5). After washing 5 times with the washing buffer, the adsorbate was dried thoroughly. The lower part of the filter unit was sealed. Then, 50 μl of liquid scintillator was added to each well and the upper part of the filter unit was sealed. Radioactivity was measured with a Top Count (Packard), and data were analyzed in triplicate.

[5] = molecular target: T1, human-type OT7T022 (hOT7T022) G …; assay: cell-based or functional assay; remark: listed apart in the source
[6] = molecular target: G protein-coupled receptor protein rOT7T022L (rat, UniProt Q9EP86 1-432); assay: cell-based or functional assay
Sequence of G protein-coupled receptor protein rOT7T022L (Q9EP86 whole entry): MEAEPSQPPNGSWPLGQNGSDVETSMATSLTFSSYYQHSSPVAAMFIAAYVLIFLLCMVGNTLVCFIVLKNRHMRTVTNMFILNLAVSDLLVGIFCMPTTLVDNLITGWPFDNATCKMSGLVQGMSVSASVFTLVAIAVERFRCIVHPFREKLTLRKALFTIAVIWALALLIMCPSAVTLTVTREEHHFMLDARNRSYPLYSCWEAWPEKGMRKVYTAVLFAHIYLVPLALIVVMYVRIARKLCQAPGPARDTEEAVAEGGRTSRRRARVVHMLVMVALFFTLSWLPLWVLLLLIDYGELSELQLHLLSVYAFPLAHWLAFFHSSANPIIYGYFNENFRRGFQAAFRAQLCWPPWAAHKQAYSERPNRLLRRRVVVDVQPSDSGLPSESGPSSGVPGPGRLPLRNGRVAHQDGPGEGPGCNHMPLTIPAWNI

T1 sequence (Q9GZQ6 whole entry): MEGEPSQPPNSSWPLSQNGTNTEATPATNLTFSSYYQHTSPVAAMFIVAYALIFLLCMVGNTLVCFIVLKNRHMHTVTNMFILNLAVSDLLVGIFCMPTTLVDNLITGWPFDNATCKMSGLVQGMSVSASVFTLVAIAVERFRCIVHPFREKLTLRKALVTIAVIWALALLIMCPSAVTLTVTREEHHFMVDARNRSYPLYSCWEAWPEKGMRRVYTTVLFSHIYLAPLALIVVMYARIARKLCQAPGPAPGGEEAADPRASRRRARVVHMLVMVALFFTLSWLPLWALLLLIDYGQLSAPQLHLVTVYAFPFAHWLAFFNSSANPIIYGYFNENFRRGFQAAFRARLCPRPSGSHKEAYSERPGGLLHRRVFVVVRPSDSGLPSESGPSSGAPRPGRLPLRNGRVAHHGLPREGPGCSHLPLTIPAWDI
Sequence of human-type OT7T022 (hOT7T022) G protein-coupled receptor protein (human) (Q9GZQ6 whole entry): as above

“hRFRP-3 (28) (second row with this label, last row of Table 1) (peptide)” showed a cAMP production inhibition EC50 [1] of 4.1 nM and an IC50 [2] of 1.6 nM.

B1: hRFRP-1-37 (peptide)
peptide: SLNFEELKDWGPKNVIKMSTPAVNKMPHSFANLPLRF-NH2
B1 was tested, and the “ED50, inhibition of intracellular cAMP increase by forskolin treatment” value [3] was 21 nM.

B2: human-type RFRP-3(31) (peptide)
peptide: SAGATANLPLRSGRNMEVSLVRRVPNLPQRF-NH2
notes: also called hRFRP-3 (31)
B2 was tested, and the IC50 [4] was 1.3 nM and the “cAMP production inhibition EC50” value [5] was 4.8 nM.

B3: PQRF amide (Pro-Gln-Arg-Phe-NH2) (peptide)
peptide: PQRF-NH2
In the case of B3, the “ED50, inhibition of intracellular cAMP increase by forskolin treatment” value [3] is reported as no less than 1000 nM.

B4: Pro-Asn-Leu-Pro-Gln-Arg-Phe-NH2: hRFRP-3(7) (peptide)
peptide: PNLPQRF-NH2
B4 was tested, and the IC50 [4] was 0.62 nM and the “cAMP production inhibition EC50” value [5] was 3.2 nM.

B5: rRFRP-1-37 (peptide)
peptide: SVTFQELKDWGAKKDIKMSPAPANKVPHSAANLPLRF
modifications: ends and bridges not checked
For B5, the “ED50, inhibition of intracellular cAMP increase by forskolin treatment” value [3] was 30 nM.

B6: Asn-Leu-Pro-Gln-Arg-Phe-NH2: hRFRP-3(6) (peptide)
peptide: NLPQRF-NH2
For B6, the IC50 [4] was 2.6 nM and the “cAMP production inhibition EC50” value [5] was 37 nM.

B7: human-type RFRP-3(28) (peptide)
peptide: ATANLPLRSGRNMEVSLVRRVPNLPQRF-NH2
notes: also called hRFRP-3 (28)
For B7, the IC50 [4] was 1.1 nM and the “cAMP production inhibition EC50” value [5] was 5.1 nM.

B8: Met-Pro-His-Ser-Phe-Ala-Asn-Leu-Pro-Leu-Arg-Phe-NH2 (MPHSFANLPLRF amide) (peptide)
peptide: MPHSFANLPLRF-NH2
B8 was tested, and the “cAMP production inhibitory effect, IC50” value [6] was 0.5 nM and the “ED50, inhibition of intracellular cAMP increase by forskolin treatment” value [3] was 4.5 nM.

From patent US20040241165A1 (Takeda / Millennium, published 2004)
